Laboratory results: article PMC7763846

Target: T1, recombinant mouse TNF-α (mouse), P06804
T1 chain: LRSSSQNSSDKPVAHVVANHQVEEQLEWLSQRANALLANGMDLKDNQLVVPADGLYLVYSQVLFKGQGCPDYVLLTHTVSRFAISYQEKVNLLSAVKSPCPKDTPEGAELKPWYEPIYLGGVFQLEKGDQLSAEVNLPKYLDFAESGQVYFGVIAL
Assay: cross-linking; 100 ng recombinant TNF-α incubated 1 h at 37 °C with different concentrations of DMSO (or without: cross-linked control), cross-linked with 4.8 mM BS3 for 30 min at room temperature, stopped with 1/10 volume 1 M Tris-HCl pH 7.5; SDS-PAGE and Western blot with anti-TNF-α antibody
Details: remark: other sources report otherwise

B1: recombinant mouse TNF-α, P06804 80-235 (ligand)
chain: LRSSSQNSSDKPVAHVVANHQVEEQLEWLSQRANALLANGMDLKDNQLVVPADGLYLVYSQVLFKGQGCPDYVLLTHTVSRFAISYQEKVNLLSAVKSPCPKDTPEGAELKPWYEPIYLGGVFQLEKGDQLSAEVNLPKYLDFAESGQVYFGVIAL
  stoichiometry N: 3
